Test results reported in patent US20250388667A1 (BIO THERA SOLUTIONS, published 2025).
Where two headings read alike, the source gives them in different places.

What was measured:
Nectin-4 on T-47D cells [1] = target: T1, Nectin-4 on T-47D cells (human, UniProt Q96NY8 32-510); assay: FACS on T-47D cells, 10 µg/mL on ice, 0 h point of the endocytosis assay
T1 construct: whole, on cells; endogenous expression; also called T-47D cells positive for Nectin-4 expression
T1 sequence (looked up): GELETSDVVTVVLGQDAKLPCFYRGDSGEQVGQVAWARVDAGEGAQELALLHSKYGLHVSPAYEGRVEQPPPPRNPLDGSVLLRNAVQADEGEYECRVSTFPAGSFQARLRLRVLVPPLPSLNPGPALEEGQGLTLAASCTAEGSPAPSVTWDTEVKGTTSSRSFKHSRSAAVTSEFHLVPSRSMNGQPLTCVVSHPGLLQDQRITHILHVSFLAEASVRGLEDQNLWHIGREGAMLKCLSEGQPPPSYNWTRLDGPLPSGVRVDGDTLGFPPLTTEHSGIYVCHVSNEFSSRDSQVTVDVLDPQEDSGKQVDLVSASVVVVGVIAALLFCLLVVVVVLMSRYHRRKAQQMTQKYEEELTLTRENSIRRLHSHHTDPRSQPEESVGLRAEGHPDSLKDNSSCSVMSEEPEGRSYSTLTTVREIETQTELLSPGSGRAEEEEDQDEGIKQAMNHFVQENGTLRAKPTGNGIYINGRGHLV
Method: (§1) In this assay, the relative amount of antibodies remaining on the cell surface after co-incubation at 37° C. for a certain period of time was detected by FACS to reflect the endocytosis efficiency. The procedures are briefly described as follows: T-47D cells (human ductal breast cancer cells, derived from the Cell Bank of Chinese Academy of Sciences, Cat. No. TCHu 87); the antibodies were adjusted to 10 μg/mL and co-incubated with the cells on ice for 1 h; the cells were washed 3 times with pre-cooled PBS, and then placed at 37° C. and incubated for 0 h, 2 h and 4 h; 0.2% N₃Na was added to stop the endocytosis reaction; the cells were washed with PBS thrice, followed by the addition of the PE-labeled anti-human Fc secondary antibody (Invitrogen 12-4998-82); the cells were incubated at 4° C. for 30 min; the red fluorescence signal was detected on a flow cytometer.

[2] = target: T2, hNectin-1 (ACRO, PV1-H5223) (human, UniProt Q15223 31-334); assay: ELISA, antigen coated, HRP-labeled anti-human-Kappa secondary antibody
T2 construct: bought
T2 sequence (looked up): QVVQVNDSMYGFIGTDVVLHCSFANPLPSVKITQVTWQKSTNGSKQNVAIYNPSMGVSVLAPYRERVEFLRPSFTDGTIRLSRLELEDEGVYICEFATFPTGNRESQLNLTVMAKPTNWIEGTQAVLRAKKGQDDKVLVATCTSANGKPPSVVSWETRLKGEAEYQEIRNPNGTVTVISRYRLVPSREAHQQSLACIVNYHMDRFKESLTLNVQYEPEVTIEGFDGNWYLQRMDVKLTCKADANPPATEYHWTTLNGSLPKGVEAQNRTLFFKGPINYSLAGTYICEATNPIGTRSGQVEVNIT
Method: (§2) The binding activity of intact antibodies was detected by ELISA. The procedures are briefly described as follows: the hNectin-4-His antigen protein of Example 1 was immobilized at a concentration of 1 μg/mL on a plate; the plate was blocked with skimmed milk powder overnight, and then, serially diluted antibodies of interest were added for co-incubation (antibodies in Table 9 were serially 2-fold diluted from 2 μg/mL; antibodies in Tables 10 and 11 were serially 3-fold diluted from 10 μg/mL) at room temperature for 2 h; then an HRP-labeled anti-human-kappa (Sigma, A7164) secondary antibody was added for co-incubation for 1 h, followed by the addition of TMB (Huzhou InnoReagents, TMB-S-001) for chromogenic reaction, and the reaction was stopped with 0.1 M H₂SO₄; after the absorbance at OD450 was read on a microplate reader, the binding EC₅₀ value for each antibody was calculated by four-parameter fitting, and the binding activities of the antibodies were compared.
(§3) In this assay, the binding of different antibodies to human Nectin-4 homologous proteins hNectin-1 (ACRO, PV1-H5223), hNectin-2 (ACRO, PV2-H52E2), hNectin-3 (ACRO, PV3-H52E4), and hNectin-4-His was detected by ELISA to determine the specificity of the antibodies. For the methodology and procedures, see Example 4. Antigens of interest ([…]) were immobilized; after blocking, serially diluted antibodies (2-fold serially diluted from […]) were added, and HRP-labeled anti-human-Kappa secondary antibody was added for chromogenic reaction.

[3] = target: T3, hNectin-2 (ACRO, PV2-H52E2) (human, UniProt Q92692 32-360); assay: as above
T3 construct: bought
T3 sequence (looked up): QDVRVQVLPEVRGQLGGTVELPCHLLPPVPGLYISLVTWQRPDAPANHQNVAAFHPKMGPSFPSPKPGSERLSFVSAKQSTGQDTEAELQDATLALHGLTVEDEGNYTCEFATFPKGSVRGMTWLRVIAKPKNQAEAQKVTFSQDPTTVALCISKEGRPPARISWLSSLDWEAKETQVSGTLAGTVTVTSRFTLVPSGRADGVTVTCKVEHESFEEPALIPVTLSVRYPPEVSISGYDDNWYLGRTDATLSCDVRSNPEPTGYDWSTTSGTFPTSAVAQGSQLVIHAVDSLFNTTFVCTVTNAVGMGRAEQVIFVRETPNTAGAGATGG
Method: as §2, §3

Nectin-4 on T-47D cells [4] = target: T1, Nectin-4 on T-47D cells; assay: FACS on T-47D cells, 10 µg/mL on ice, 0 h point of the endocytosis assay; remark: listed apart in the source
Method: as §1

Row | MFI (0 h) (Nectin-4 on T-47D cells [1]) [MFI] | MFI (0 h) (Nectin-4 on T-47D cells [4]) [MFI] | other results | Binder
1 | 121000 |  | binding result [2]: no binding (tested: 2000 ng/mL); binding result [3]: no binding (tested: 2000 ng/mL) | antibody 1F3 (antibody, human IgG1, kappa, V domains shown, intact antibody) VH: not shown VL: DIQMTQSPSSLSASVGDRVTITCRASQGISSYLAWYQQKPGKAPKLLIYAASSLQSGVPSRFSGSGSGTDFTLTISSLQPEDFATYYCQQHYTTPPTFGQGTKVEIKR
2 | 107000 | 58600 |  | reference antibody ASG-22 (antibody, human IgG1, kappa, V domains shown) VH: EVQLVESGGGLVQPGGSLRLSCAASGFTFSSYNMNWVRQAPGKGLEWVSYISSSSSTIYYADSVKGRFTISRDNAKNSLSLQMNSLRDEDTAVYYCARAYYYGMDVWGQGTLVTVSS VL: DIQMTQSPSSVSASVGDRVTITCRASQGISGWLAWYQQKPGKAPKFLIYAASTLQSGVPSRFSGSGSGTDFTLTISSLQPEDFATYYCQQANSFPPTFGGGTKVEIKR
3 |  | 58200 |  | antibody 1F3-2E8 (antibody, human IgG1, kappa, V domains shown, intact antibody) VH: EVQLVESGGGLVQPGGSLRLSCAASGYSFSDYGMSWVRQAPGKGLEWVSWISPSKGSASYADSVKGRFTISRDNSKNTLYLQMNSLRAEDTAVYYCARAELLAFDVYTASDYWGQGTLVTVSS VL: DIQMTQSPSSLSASVGDRVTITCRASQGISSYLAWYQQKPGKAPKLLIYAASSLQSGVPSRFSGSGSGTDFTLTISSLQPEDFATYYCQQHYTTPPTFGQGTKVEIKR
4 |  | 65300 |  | antibody 1F3-1B1 (antibody, human IgG1, kappa, V domains shown, intact antibody) VH: EVQLVESGGGLVQPGGSLRLSCAASGFTFGTYGMSWVRQAPGKGLEWVSGIKPGDSTTYYADSVKGRFTISRDNSKNTLYLQMNSLRAEDTAVYYCARAELLAFDVYTASDYWGQGTLVTVSS VL: DIQMTQSPSSLSASVGDRVTITCRASQGISSYLAWYQQKPGKAPKLLIYAASSLQSGVPSRFSGSGSGTDFTLTISSLQPEDFATYYCQQHYTTPPTFGQGTKVEIKR
5 | 105000 |  |  | antibody 3A10 (antibody, human IgG1, kappa, V domains shown, intact antibody) VH: not shown VL: DIQMTQSPSSLSASVGDRVTITCRASQGISSYLAWYQQKPGKAPKLLIYAASSLQSGVPSRFSGSGSGTDFTLTISSLQPEDFATYYCQQHYTTPPTFGQGTKVEIKR
6 |  | 69000 |  | antibody 1F3-2F3 (antibody, human IgG1, kappa, V domains shown, intact antibody) VH: EVQLVESGGGLVQPGGSLRLSCAASGFNFSDYGMSWVRQAPGKGLEWVSRIDWDGGNTRYADSVKGRFTISRDNSKNTLYLQMNSLRAEDTAVYYCARAELLAFDVYTASDYWGQGTLVTVSS VL: DIQMTQSPSSLSASVGDRVTITCRASQGISSYLAWYQQKPGKAPKLLIYAASSLQSGVPSRFSGSGSGTDFTLTISSLQPEDFATYYCQQHYTTPPTFGQGTKVEIKR
7 |  | 58600 |  | antibody 10F4-1 (antibody, human IgG1, kappa, V domains shown, intact antibody) VH: EVQLVESGGGLVQPGGSLRLSCAASGDSFTNYWMSWVRQAPGKGLEWVSGISQGGSYAYYADSVKGRFTISRDNSKNTLYLQMNSLRAEDTAVYYCAREYSDVVDYVSVRTPLDYWGQGTLVTVSS VL: DIQMTQSPSSLSASVGDRVTITCRASQGISSYLAWYQQKPGKAPKLLIYAASSLQSGVPSRFSGSGSGTDFTLTISSLQPEDFATYYCQQHYTTPPTFGQGTKVEIKR
8 | 108000 |  |  | antibody 1B4 (antibody, human IgG1, kappa, V domains shown, intact antibody) VH: not shown VL: DIQMTQSPSSLSASVGDRVTITCRASQGISSYLAWYQQKPGKAPKLLIYAASSLQSGVPSRFSGSGSGTDFTLTISSLQPEDFATYYCQQHYTTPPTFGQGTKVEIKR
9 |  | 63400 |  | antibody 10F4-5 (antibody, human IgG1, kappa, V domains shown, intact antibody) VH: EVQLVESGGGLVQPGGSLRLSCAASGFIFDGYDMSWVRQAPGKGLEWVSVIKDHGGYKFYADSVKGRFTISRDNSKNTLYLQMNSLRAEDTAVYYCAREYSDVVDYVSVRTPLDYWGQGTLVTVSS VL: DIQMTQSPSSLSASVGDRVTITCRASQGISSYLAWYQQKPGKAPKLLIYAASSLQSGVPSRFSGSGSGTDFTLTISSLQPEDFATYYCQQHYTTPPTFGQGTKVEIKR
10 |  | 60500 |  | antibody 1F3-1G11 (antibody, human IgG1, kappa, V domains shown, intact antibody) VH: EVQLVESGGGLVQPGGSLRLSCAASGYSFTGYGMSWVRQAPGKGLEWVSGISPSGGTIGYADSVKGRFTISRDNSKNTLYLQMNSLRAEDTAVYYCARAELLAFDVYTASDYWGQGTLVTVSS VL: DIQMTQSPSSLSASVGDRVTITCRASQGISSYLAWYQQKPGKAPKLLIYAASSLQSGVPSRFSGSGSGTDFTLTISSLQPEDFATYYCQQHYTTPPTFGQGTKVEIKR
11 |  | 59400 |  | antibody 1F3-2B1 (antibody, human IgG1, kappa, V domains shown, intact antibody) VH: EVQLVESGGGLVQPGGSLRLSCAASGYNFDNYAMSWVRQAPGKGLEWVSGIKPDSATTYYADSVKGRFTISRDNSKNTLYLQMNSLRAEDTAVYYCARAELLAFDVYTASDYWGQGTLVTVSS VL: DIQMTQSPSSLSASVGDRVTITCRASQGISSYLAWYQQKPGKAPKLLIYAASSLQSGVPSRFSGSGSGTDFTLTISSLQPEDFATYYCQQHYTTPPTFGQGTKVEIKR
12 |  | 61200 |  | antibody 10F4-3 (antibody, human IgG1, kappa, V domains shown, intact antibody) VH: EVQLVESGGGLVQPGGSLRLSCAASGFSFGDFAMSWVRQAPGKGLEWVSVIDGHTAYNSYADSVKGRFTISRDNSKNTLYLQMNSLRAEDTAVYYCAREYSDVVDYVSVRTPLDYWGQGTLVTVSS VL: DIQMTQSPSSLSASVGDRVTITCRASQGISSYLAWYQQKPGKAPKLLIYAASSLQSGVPSRFSGSGSGTDFTLTISSLQPEDFATYYCQQHYTTPPTFGQGTKVEIKR
13 | 107000 |  |  | antibody 10A4 (antibody, human IgG1, kappa, V domains shown, intact antibody) VH: not shown VL: DIQMTQSPSSLSASVGDRVTITCRASQGISSYLAWYQQKPGKAPKLLIYAASSLQSGVPSRFSGSGSGTDFTLTISSLQPEDFATYYCQQHYTTPPTFGQGTKVEIKR
14 |  | 73400 |  | antibody 1F3-1E1 (antibody, human IgG1, kappa, V domains shown, intact antibody) VH: EVQLVESGGGLVQPGGSLRLSCAASGFSFDDYAMSWVRQAPGKGLEWVSIIYPTGSTNYYADSVKGRFTISRDNSKNTLYLQMNSLRAEDTAVYYCARAELLAFDVYTASDYWGQGTLVTVSS VL: DIQMTQSPSSLSASVGDRVTITCRASQGISSYLAWYQQKPGKAPKLLIYAASSLQSGVPSRFSGSGSGTDFTLTISSLQPEDFATYYCQQHYTTPPTFGQGTKVEIKR
